# Paper PMC11535055, “ER-phagy restrains inflammatory responses through its receptor UBAC2” (The EMBO Journal, 2024)
# How the values were obtained:
# [1] = target: GABARAP (UniProt O95166); assay: co-IP Flag-GABARAP with HA-UBAC2; settings: reference: wild type; sites S223
# [2] = target: the molecule itself; assay: cross-linking; extracts of HeLa cells (also WT THP-1 macrophages and HT-29 cells) treated with TG or EBSS in the presence of Baf A1 (0.2 uM); 2 mM disuccinimidyl suberate (DSS), immunoblot for endogenous UBAC2
# [3] = target: the molecule itself; assay: cross-linking; 293T cells transfected with WT UBAC2 or S223 mutants, TG (1 uM, 1 h) or EBSS (3 h) with Baf A1 (0.2 uM), with scramble or MARK2 siRNA; lysates treated with 2 mM DSS, immunoblot
Molecule,stoichiometry N [3],further results
UBAC2 (from UniProt Q8NBM4) S223A,–,binding against the reference [1]: weaker
"UBAC2, endogenous (natural protein, human (endogenous in HeLa, THP-1, HT-29), UniProt Q8NBM4 36-344, looked up, UBAC2 endogenous in human cell lines; also called ubiquitin-associated domain-containing protein 2; source: endogenous, lysates of HeLa cells, THP-1-derived macrophages and HT-29 cells) HCQKLFVYDLHAVKNDFQIWRLICGRIICLDLKDTFCSSLLIYNFRIFERRYGSRKFASFLLGSWVLSALFDFLLIEAMQYFFGITAASNLPSGFLAPVFALFVPFYCSIPRVQVAQILGPLSITNKTLIYILGLQLFTSGSYIWIVAISGLMSGLCYDSKMFQVHQVLCIPSWMAKFFSWTLEPIFSSSEPTSEARIGMGATLDIQRQQRMELLDRQLMFSQFAQGRRQRQQQGGMINWNRLFPPLRQRQNVNYQGGRQSEPAAPPLEVSEEQVARLMEMGFSRGDALEALRASNNDLNVATNFLLQH",–,stoichiometry N [2]: 2
"UBAC2 wild type, transfected (cross-linking experiments) (natural protein, human, UniProt Q8NBM4 36-344, looked up, UBAC2, human; also called WT UBAC2) HCQKLFVYDLHAVKNDFQIWRLICGRIICLDLKDTFCSSLLIYNFRIFERRYGSRKFASFLLGSWVLSALFDFLLIEAMQYFFGITAASNLPSGFLAPVFALFVPFYCSIPRVQVAQILGPLSITNKTLIYILGLQLFTSGSYIWIVAISGLMSGLCYDSKMFQVHQVLCIPSWMAKFFSWTLEPIFSSSEPTSEARIGMGATLDIQRQQRMELLDRQLMFSQFAQGRRQRQQQGGMINWNRLFPPLRQRQNVNYQGGRQSEPAAPPLEVSEEQVARLMEMGFSRGDALEALRASNNDLNVATNFLLQH",2,–
"UBAC2 S223D, transfected (cross-linking experiments) (natural protein, human, UniProt Q8NBM4 36-344, looked up, UBAC2, human; also called S223D mutant form of UBAC2) HCQKLFVYDLHAVKNDFQIWRLICGRIICLDLKDTFCSSLLIYNFRIFERRYGSRKFASFLLGSWVLSALFDFLLIEAMQYFFGITAASNLPSGFLAPVFALFVPFYCSIPRVQVAQILGPLSITNKTLIYILGLQLFTSGSYIWIVAISGLMSGLCYDSKMFQVHQVLCIPSWMAKFFSWTLEPIFDSSEPTSEARIGMGATLDIQRQQRMELLDRQLMFSQFAQGRRQRQQQGGMINWNRLFPPLRQRQNVNYQGGRQSEPAAPPLEVSEEQVARLMEMGFSRGDALEALRASNNDLNVATNFLLQH",2,–
